The record followed here is patent US20170283834A1, “Processes for Producing A Fermentation Product Using A Fermenting Organism” (Novozymes A/S, priority 2014, published 2017).

Where a chain is given by its changes, count along the chain named. Names may count otherwise.

In the data set the test system is zein. The data set is described as follows: Relative activity assay of protease variants (zein micro titer plate). The format is biochemical. The procedure: Each well contains 200 microL of 0.05-0.1% of zein (Sigma), 0.25 mM ZnSO4 and 1% of agar in 20 mM sodium acetate buffer, pH 4.5.
Yeast clones on SC-glucose were inoculated to a well of a 96-well micro titre plate containing YPD+Zn medium and cultivated at 28° C. for 3 days. The culture supernatants were applied to a 96-well zein micro titer plate and incubated at at least 2 temperatures (ex. 60° C. and 65° C., 70° C. and 75° C., 70° C. and 80° C.) for more than 4 hours or overnight. The turbidity of zein in the plate was measured as A630 and the relative activity (higher/lower temperatures) was determined as an indicator of thermoactivity improvement. The clones with higher relative activity than the parental variant were selected and the sequence was determined.

B1: JTP059: protease variant of SEQ ID NO: 3: C6R/D79L/S87P (protein, listed as Thermoascus aurantiacus)
chain: MRLVASLTALVALSVPVFPAAVNVKRASSYLEITLSQVSNTLIKAVVQNTGSDELSFVHLNFFKDPAPVKKVSVYRDGSEVQFEGILSRYKSTGLSRDAFTYLAPGESVEDVFDIASTYDLTSGGPVTIRTEGVVPYATANSTDIAGYISYSSNVLTIDVDGAAAATVSKAITPLDRRTRISSRSGSRQSALTTALRNAASLANAAADAAQSGSASKFSEYFKTTSSSTRQTVAARLRAVAREASSSSSGATTYYCLDPYGYCSPNVLAYTLPSYNIIANCDIFYTYLPALTSTCHAQDQATTALHEFTHAPGVYSPGTDDLAYGYQAAMGLSSSQAVMNADTYALYANAIYLGC
On to B1, for which the “Relative activity 75° C./70° C.” value (Table 3) came out at 92%.

B2: JTP061: protease variant of SEQ ID NO: 3: T46R/D79L/S87P (protein, listed as Thermoascus aurantiacus)
chain: B1 chain with R184C, T224R
As to B2, the “Relative activity 75° C./70° C.” value (Table 3) stood at 111%.

B3: JTP071: protease variant of SEQ ID NO: 3: D79L/S87P/T116V (protein, listed as Thermoascus aurantiacus)
chain: B1 chain with R184C, T294V
As to B3, for the setting “Table 3”, the “Relative activity 75° C./70° C.” value worked out at 105%.

B4: JTP069: protease variant of SEQ ID NO: 3: D79L/S87P/S115R (protein, listed as Thermoascus aurantiacus)
chain: B1 chain with R184C, S293R
Take B4: the “Relative activity 75° C./70° C.” value (Table 3) turned out to be 103%.

B5: JTP143: protease variant of SEQ ID NO: 3: S36P D79L S87P A112P D142L (protein, listed as Thermoascus aurantiacus)
chain: B1 chain with R184C, S214P, A290P, D320L
On to B5, for which, for the setting “Table 5, upper part”, the “Relative activity 75° C./70° C.” value came out at 69%.

B6: JTP083: protease variant of SEQ ID NO: 3: T46R/D79L/S87P/A112P/D142L (protein, listed as Thermoascus aurantiacus)
chain: B1 chain with R184C, T224R, A290P, D320L
With B6, where the note is “Table 4”, the “Relative activity 75° C./65° C.” value was 126%.

B7: JTP144: protease variant of SEQ ID NO: 3: A37P D79L S87P A112P D142L (protein, listed as Thermoascus aurantiacus)
chain: B1 chain with R184C, A215P, A290P, D320L
Regarding B7, the “Relative activity 75° C./70° C.” value (Table 5, upper part) is on record as 57%.

B8: JTP146: protease variant of SEQ ID NO: 3: S50P D79L S87P A112P D142L (protein, listed as Thermoascus aurantiacus)
chain: B1 chain with R184C, S228P, A290P, D320L
Take B8: under “Table 5, upper part”, the “Relative activity 75° C./70° C.” value worked out at 83% and the “Relative activity 80° C./70° C.” value was found to be 63%.

B9: JTP161: protease variant of SEQ ID NO: 3: D79L Y82F S87G A112P D142L (protein, listed as Thermoascus aurantiacus)
chain: B1 chain with R184C, Y260F, P265G, A290P, D320L
Take B9: under “Table 5, upper part”, the “Relative activity 80° C./70° C.” value stood at 30% and the “Relative activity 85° C./70° C.” value was determined as 12%.

B10: JTP079: protease variant of SEQ ID NO: 3: A27G/D79L/S87P/A112P/D142L (protein, listed as Thermoascus aurantiacus)
chain: B1 chain with R184C, A205G, A290P, D320L
Consider B10, for which the “Relative activity 75° C./65° C.” value (Table 3) stood at 104%.

B11: JTP180: protease variant of SEQ ID NO: 3: S70V D79L Y82F S87G Y97W A112P D142L (protein, listed as Thermoascus aurantiacus)
chain: B1 chain with R184C, S248V, Y260F, P265G, Y275W, A290P, D320L
As to B11, under “Table 5, upper part”, the “Relative activity 80° C./70° C.” value amounted to 52%.

B12: JTP064: protease variant of SEQ ID NO: 3: D79L/S87P/N88R (protein, listed as Thermoascus aurantiacus)
chain: B1 chain with R184C, N266R
Consider B12, for which the “Relative activity 75° C./70° C.” value (Table 3) turned out to be 92%.

B13: JTP090: protease variant of SEQ ID NO: 3: D79L/S87P/A112P/T124L/D142L (protein, listed as Thermoascus aurantiacus)
chain: B1 chain with R184C, A290P, T302L, D320L
Consider B13, for which the “Relative activity 75° C./65° C.” value (Table 4) is 141%.

B14: JTP088: protease variant of SEQ ID NO: 3: Y43F/D79L/S87P/A112P/D142L (protein, listed as Thermoascus aurantiacus)
chain: B1 chain with R184C, Y221F, A290P, D320L
With B14, where the note is “Table 4”, the “Relative activity 75° C./65° C.” value is listed as 119%.

B15: JTP078: protease variant of SEQ ID NO: 3: A27V/D79L/S87P/A112P/D142L (protein, listed as Thermoascus aurantiacus)
chain: B1 chain with R184C, A205V, A290P, D320L
With B15, the “Relative activity 75° C./65° C.” value (Table 3) is on record as 100%.

B16: JTP135: protease variant of SEQ ID NO: 3: S38T D79L S87P A112P A126V D142L (protein, listed as Thermoascus aurantiacus)
chain: B1 chain with R184C, S216T, A290P, A304V, D320L
B16: the “Relative activity 80° C./70° C.” value (Table 5, upper part) amounted to 62%.

B17: JTP194: protease variant of SEQ ID NO: 3: Y82F S87G D79L D104P A112P A126V D142L (protein, listed as Thermoascus aurantiacus)
chain: B1 chain with R184C, Y260F, P265G, D282P, A290P, A304V, D320L
For the molecule B17, under “Table 5, upper part”, the “Relative activity 85° C./70° C.” value was 22%.

B18: JTP181: protease variant of SEQ ID NO: 3: D79L Y82F S87G Y97W D104P A112P D142L (protein, listed as Thermoascus aurantiacus)
chain: B1 chain with R184C, Y260F, P265G, Y275W, D282P, A290P, D320L
In the case of B18, the “Relative activity 80° C./70° C.” value (Table 5, upper part) was found to be 45%.

B19: JTP189: protease variant of SEQ ID NO: 3: D79L Y82F S87G A112P A126V D142L (protein, listed as Thermoascus aurantiacus)
chain: B1 chain with R184C, Y260F, P265G, A290P, A304V, D320L
With B19, the “Relative activity 80° C./70° C.” value (Table 5, upper part) was 46%.

B20: JTP063: protease variant of SEQ ID NO: 3: S49R/D79L/S87P (protein, listed as Thermoascus aurantiacus)
chain: B1 chain with R184C, S227R
For the molecule B20, under “Table 3”, the “Relative activity 75° C./70° C.” value was found to be 94%.

B21: JTP210: protease variant of SEQ ID NO: 3: A27K Y82F S87G D104P A112P A126V D142L (protein, listed as Thermoascus aurantiacus)
chain: B1 chain with R184C, A205K, L257D, Y260F, P265G, D282P, A290P, A304V, D320L
Turning to B21, under “Table 5, lower part”, the “Relative activity 75° C./70° C.” value turned out to be 107% and the “Relative activity 80° C./70° C.” value came to 36%.

B22: JTP068: protease variant of SEQ ID NO: 3: D79L/S87P/T114P (protein, listed as Thermoascus aurantiacus)
chain: B1 chain with R184C, T292P
In the case of B22, where the note is “Table 3”, the “Relative activity 75° C./70° C.” value is listed as 99%.

B23: JTP193: protease variant of SEQ ID NO: 3: Y82F S87G S70V D79L D104P A112P D142L (protein, listed as Thermoascus aurantiacus)
chain: B1 chain with R184C, S248V, Y260F, P265G, D282P, A290P, D320L
On to B23, for which the “Relative activity 85° C./70° C.” value (Table 5, upper part) came to 15%.

B24: JTP072: protease variant of SEQ ID NO: 3: N26R/D79L/S87P (protein, listed as Thermoascus aurantiacus)
chain: B1 chain with R184C, N204R
On to B24, for which the “Relative activity 75° C./65° C.” value (Table 3) came out at 92%.

B25: JTP141: protease variant of SEQ ID NO: 3: D79L S87P A112P D142L T141C M161C (protein, listed as Thermoascus aurantiacus)
chain: B1 chain with R184C, A290P, T319C, D320L, M339C
For the molecule B25, where the note is “Table 5, upper part”, the “Relative activity 75° C./70° C.” value came to 68%.

B26: JTP140: protease variant of SEQ ID NO: 3: D79L S87P N98C A112P G135C D142L (protein, listed as Thermoascus aurantiacus)
chain: B1 chain with R184C, N276C, A290P, G313C, D320L
B26: the “Relative activity 75° C./70° C.” value (Table 5, upper part) stood at 81%.

B27: JTP136: protease variant of SEQ ID NO: 3: D79L Y82F S87P A112P A126V D142L (protein, listed as Thermoascus aurantiacus)
chain: B1 chain with R184C, Y260F, A290P, A304V, D320L
As to B27, the “Relative activity 80° C./70° C.” value (Table 5, upper part) is listed as 59%.

B28: JTP137: protease variant of SEQ ID NO: 3: A27K D79L S87P A112P A126V D142L (protein, listed as Thermoascus aurantiacus)
chain: B1 chain with R184C, A205K, A290P, A304V, D320L
For B28, the “Relative activity 80° C./70° C.” value (Table 5, upper part) turned out to be 54%.

B29: JTP145: protease variant of SEQ ID NO: 3: S49P D79L S87P A112P D142L (protein, listed as Thermoascus aurantiacus)
chain: B1 chain with R184C, S227P, A290P, D320L
As to B29, where the note is “Table 5, upper part”, the “Relative activity 75° C./70° C.” value was determined as 82% and the “Relative activity 80° C./70° C.” value is listed as 59%.

B30: JTP187: protease variant of SEQ ID NO: 3: S70V D79L Y82F S87G A112P D142L (protein, listed as Thermoascus aurantiacus)
chain: B1 chain with R184C, S248V, Y260F, P265G, A290P, D320L
Regarding B30, the “Relative activity 80° C./70° C.” value (Table 5, upper part) stood at 45%.

B31: JTP148: protease variant of SEQ ID NO: 3: D79L S87P D104P A112P D142L (protein, listed as Thermoascus aurantiacus)
chain: B1 chain with R184C, D282P, A290P, D320L
Turning to B31, for the setting “Table 5, upper part”, the “Relative activity 75° C./70° C.” value came to 76% and the “Relative activity 80° C./70° C.” value is 64%.
